B1: Pembrolizumab (antibody, V domains shown)
VH: QVQLVQSGVEVKKPGASVKVSCKASGYTFTNYYMYWVRQAPGQGLEWMGGINPSNGGTNFNEKFKNRVTLTTDSSTTTAYMELKSLQFDDTAVYYCARRDYRFDMGFDYWGQGTTVTVSS
VL: EIVLTQSPATLSLSPGERATLSCRASKGVSTSGYSYLHWYQQKPGQAPRLLIYLASYLESGVPARFSGSGSGTDFTLTISSLEPEDFAVYYCQHSRDLPLTFGGGTKVEIK
notes: variable domain of the pembrolizumab heavy chain; constant region of the IgG4 heavy chain; light chain of pembrolizumab; IgG4; Whole therapeutic antibody in all assays; also called anti-PD-1 antibody; IgG4
B2: Prolgolimab (antibody, V domains shown)
VH: QVQLVQSGGGLVQPGGSLRLSCAASGFTFSSYWMYWVRQVPGKGLEWVSAIDTGGGRTYYADSVKGRFAISRVNAKNTMYLQMNSLRAEDTAVYYCARDEGGGTGWGVLKDWPYGLDAWGQGTLVTVSS
VL: QPVLTQPLSVSVALGQTARITCGGNNIGSKNVHWYQQKPGQAPVLVIYRDSNRPSGIPERFSGSNSGNTATLTISRAQAGDEADYYCQVWDSSTAVFGTGTKLTVL

Assays:
[1] = molecular target: extracellular fragment of FcγRIIIa (158V); experiment: BLI; biotinylated FcγR immobilized on Streptavidin (SA) biosensors (Octet Red384); antibodies in solution as serial dilutions; PBS pH 7.4 0.1% BSA 0.1% Tween-20; at least triplicate
[2] = molecular target: extracellular fragment of FcγRIIa (131R); experiment: as above
[3] = molecular target: extracellular fragment of FcγRIIIa (158F) (UniProt P08637); experiment: as above
[4] = molecular target: extracellular fragment of FcγRIIa (131H) (UniProt P12318); experiment: as above
[5] = molecular target: extracellular fragment of FcγRIIb (UniProt P31994); experiment: as above
[6] = molecular target: extracellular fragment of FcγRIa (UniProt P12314); experiment: as above
[7] = molecular target: extracellular fragment of FcRn (UniProt P55899); experiment: BLI; biotinylated FcRn immobilized on Streptavidin (SA) biosensors (Octet Red384); antibodies in solution, 345 to 5.39 nM; PBS-HCl pH 6.0 0.1% Tween-20; at least triplicate
[8] = molecular target: T1, extracellular domain of PD-1 receptor (R&D Systems) (Homo sapiens, UniProt Q15116); experiment: SPR; PD-1 extracellular domain immobilized on a Planar Polyethylene Glycol/Carboxyl Sensor Chip (Reichert4SPR); antibodies in solution, 10; 3.33; 1.11; 0.37; 0.12 nM in PBS 0.02% Tween-20 pH 7.4; multi-step kinetics; triplicate; conditions: both partners purified
T1 construct: Programmed cell death protein 1 (PD-1), extracellular domain; also called Programmed cell death protein 1; source: bought: R&D Systems
T1 sequence (Q15116 25-170): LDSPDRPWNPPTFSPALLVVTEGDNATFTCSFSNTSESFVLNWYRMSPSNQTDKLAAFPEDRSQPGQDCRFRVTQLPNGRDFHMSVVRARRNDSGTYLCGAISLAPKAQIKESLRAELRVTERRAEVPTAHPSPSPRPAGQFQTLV

extracellular fragment of FcγRIIIa (158F), sequence (P08637 17-208): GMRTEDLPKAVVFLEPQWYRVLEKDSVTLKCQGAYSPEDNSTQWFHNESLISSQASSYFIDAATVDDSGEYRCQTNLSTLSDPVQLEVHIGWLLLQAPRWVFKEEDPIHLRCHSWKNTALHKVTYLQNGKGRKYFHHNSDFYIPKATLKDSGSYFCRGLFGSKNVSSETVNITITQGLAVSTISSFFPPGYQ
extracellular fragment of FcγRIIb, sequence (P31994 43-217): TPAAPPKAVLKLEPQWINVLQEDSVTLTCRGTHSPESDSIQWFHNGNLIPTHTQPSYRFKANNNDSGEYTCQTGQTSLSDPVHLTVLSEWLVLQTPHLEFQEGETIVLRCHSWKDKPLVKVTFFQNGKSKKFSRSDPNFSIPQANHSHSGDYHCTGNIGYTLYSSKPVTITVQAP
extracellular fragment of FcγRIIa (131H), sequence (P12318 34-217): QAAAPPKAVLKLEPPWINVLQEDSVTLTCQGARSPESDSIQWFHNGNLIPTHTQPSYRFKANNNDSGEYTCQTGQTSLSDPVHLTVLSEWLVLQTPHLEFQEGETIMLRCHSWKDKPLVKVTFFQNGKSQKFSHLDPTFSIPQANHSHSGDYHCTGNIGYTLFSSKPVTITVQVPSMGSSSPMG
extracellular fragment of FcγRIa, sequence (P12314 16-292): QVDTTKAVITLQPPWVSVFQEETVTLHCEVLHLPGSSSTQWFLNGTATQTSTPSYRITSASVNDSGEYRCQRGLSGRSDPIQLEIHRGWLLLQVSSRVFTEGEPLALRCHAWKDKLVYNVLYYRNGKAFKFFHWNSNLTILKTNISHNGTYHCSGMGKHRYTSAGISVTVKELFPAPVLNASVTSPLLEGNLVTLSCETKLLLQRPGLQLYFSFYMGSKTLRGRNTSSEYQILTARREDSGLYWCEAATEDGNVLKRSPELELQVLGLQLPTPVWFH
extracellular fragment of FcRn, sequence (P55899 24-297): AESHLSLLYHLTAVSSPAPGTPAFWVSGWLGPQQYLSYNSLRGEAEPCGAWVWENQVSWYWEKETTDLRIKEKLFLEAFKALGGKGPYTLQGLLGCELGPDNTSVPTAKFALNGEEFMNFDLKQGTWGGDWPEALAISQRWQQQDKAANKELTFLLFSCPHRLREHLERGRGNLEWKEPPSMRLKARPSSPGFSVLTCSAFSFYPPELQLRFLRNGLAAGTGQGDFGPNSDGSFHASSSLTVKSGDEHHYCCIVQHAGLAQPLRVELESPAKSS

Molecule | Kd [1] [µM] | Kd [2] [µM] | Kd [3] [µM] | Kd [4] [µM] | Kd [5] [µM] | Kd [6] [µM] | Kd [7] [µM] | Kd [8] [pM]
Pembrolizumab (antibody) | 5.24 | 5.17 |  |  |  |  |  | 
Nivolumab (antibody) | 8.97 | 2 | 16.6 | 13.1 | 0.93 | 0.074 | 0.0248 | 
B1 |  |  | 19.9 | 11.1 | 8.64 | 0.085 | 0.025 | 4.7
B2 | 1.33 | 9.66 | 12.7 | 14.6 | 21 | 0.9 | 0.0153 | 
